Measurements published in the Human Domainome abundance scans (Beltran et al. 2025).
± gives the uncertainty stated by the source.

B1: POU domain, class 4, transcription factor 2, residues 256 to 327; numbered along this chain, Q12837 (parent)
chain: RDLEAFAERFKQRRIKLGVTQADVGSALANLKIPGVGSLSQSTICRFESLTLSHNNMIALKPILQAWLEEAE

Variants of: B1
Experiment: abundance fitness (aPCA) (normalised: wild type 0, dead -1); higher = more abundant; growth selection in yeast, the domain comes from the species named
Conditions: Homo sapiens

Variant	abundance fitness
RDLEAFAERFKQRRIKLGVTQADEGSALANLKIPGVGSLSQSTICRFESLTLSHNNMIALKPILQAWLEEAE [V24E]	-0.88 ± 0.39
RDLEAFAERFKQRRIKLGVTQADFGSALANLKIPGVGSLSQSTICRFESLTLSHNNMIALKPILQAWLEEAE [V24F]	-0.642 ± 0.18
RDLEAFAERFKQRRIKLGVTQADGGSALANLKIPGVGSLSQSTICRFESLTLSHNNMIALKPILQAWLEEAE [V24G]	-1.03 ± 0.19
RDLEAFAERFKQRRIKLGVTQADIGSALANLKIPGVGSLSQSTICRFESLTLSHNNMIALKPILQAWLEEAE [V24I]	-0.145 ± 0.15
RDLEAFAERFKQRRIKLGVTQADKGSALANLKIPGVGSLSQSTICRFESLTLSHNNMIALKPILQAWLEEAE [V24K]	-0.844 ± 0.21
RDLEAFAERFKQRRIKLGVTQADMGSALANLKIPGVGSLSQSTICRFESLTLSHNNMIALKPILQAWLEEAE [V24M]	-0.191 ± 0.098
RDLEAFAERFKQRRIKLGVTQADNGSALANLKIPGVGSLSQSTICRFESLTLSHNNMIALKPILQAWLEEAE [V24N]	-0.821 ± 0.25
RDLEAFAERFKQRRIKLGVTQADPGSALANLKIPGVGSLSQSTICRFESLTLSHNNMIALKPILQAWLEEAE [V24P]	-0.928 ± 0.24
RDLEAFAERFKQRRIKLGVTQADQGSALANLKIPGVGSLSQSTICRFESLTLSHNNMIALKPILQAWLEEAE [V24Q]	-1.02 ± 0.28
RDLEAFAERFKQRRIKLGVTQADRGSALANLKIPGVGSLSQSTICRFESLTLSHNNMIALKPILQAWLEEAE [V24R]	-0.76 ± 0.09
RDLEAFAERFKQRRIKLGVTQADSGSALANLKIPGVGSLSQSTICRFESLTLSHNNMIALKPILQAWLEEAE [V24S]	-0.8 ± 0.12
RDLEAFAERFKQRRIKLGVTQADTGSALANLKIPGVGSLSQSTICRFESLTLSHNNMIALKPILQAWLEEAE [V24T]	-0.948 ± 0.17
RDLEAFAERFKQRRIKLGVTQADWGSALANLKIPGVGSLSQSTICRFESLTLSHNNMIALKPILQAWLEEAE [V24W]	-0.781 ± 0.11
RDLEAFAERFKQRRIKLGVTQADYGSALANLKIPGVGSLSQSTICRFESLTLSHNNMIALKPILQAWLEEAE [V24Y]	-0.975 ± 0.4
RDLEAFAERFKQRRIKLGVTQADVASALANLKIPGVGSLSQSTICRFESLTLSHNNMIALKPILQAWLEEAE [G25A]	-0.006 ± 0.094
RDLEAFAERFKQRRIKLGVTQADVCSALANLKIPGVGSLSQSTICRFESLTLSHNNMIALKPILQAWLEEAE [G25C]	0.131 ± 0.14
RDLEAFAERFKQRRIKLGVTQADVDSALANLKIPGVGSLSQSTICRFESLTLSHNNMIALKPILQAWLEEAE [G25D]	-0.501 ± 0.26
RDLEAFAERFKQRRIKLGVTQADVESALANLKIPGVGSLSQSTICRFESLTLSHNNMIALKPILQAWLEEAE [G25E]	0.127 ± 0.09
RDLEAFAERFKQRRIKLGVTQADVFSALANLKIPGVGSLSQSTICRFESLTLSHNNMIALKPILQAWLEEAE [G25F]	-0.494 ± 0.24
RDLEAFAERFKQRRIKLGVTQADVISALANLKIPGVGSLSQSTICRFESLTLSHNNMIALKPILQAWLEEAE [G25I]	-0.145 ± 0.18
RDLEAFAERFKQRRIKLGVTQADVKSALANLKIPGVGSLSQSTICRFESLTLSHNNMIALKPILQAWLEEAE [G25K]	-0.264 ± 0.19
RDLEAFAERFKQRRIKLGVTQADVLSALANLKIPGVGSLSQSTICRFESLTLSHNNMIALKPILQAWLEEAE [G25L]	-0.031 ± 0.059
RDLEAFAERFKQRRIKLGVTQADVMSALANLKIPGVGSLSQSTICRFESLTLSHNNMIALKPILQAWLEEAE [G25M]	-0.242 ± 0.21
RDLEAFAERFKQRRIKLGVTQADVNSALANLKIPGVGSLSQSTICRFESLTLSHNNMIALKPILQAWLEEAE [G25N]	-0.593 ± 0.26
RDLEAFAERFKQRRIKLGVTQADVPSALANLKIPGVGSLSQSTICRFESLTLSHNNMIALKPILQAWLEEAE [G25P]	-0.487 ± 0.1

Variant	abundance fitness
RDLEAFAERFKQRRIKLGVTQADVQSALANLKIPGVGSLSQSTICRFESLTLSHNNMIALKPILQAWLEEAE [G25Q]	-0.207 ± 0.11
RDLEAFAERFKQRRIKLGVTQADVRSALANLKIPGVGSLSQSTICRFESLTLSHNNMIALKPILQAWLEEAE [G25R]	-0.283 ± 0.046
RDLEAFAERFKQRRIKLGVTQADVSSALANLKIPGVGSLSQSTICRFESLTLSHNNMIALKPILQAWLEEAE [G25S]	0.166 ± 0.052
RDLEAFAERFKQRRIKLGVTQADVTSALANLKIPGVGSLSQSTICRFESLTLSHNNMIALKPILQAWLEEAE [G25T]	0.117 ± 0.097
RDLEAFAERFKQRRIKLGVTQADVWSALANLKIPGVGSLSQSTICRFESLTLSHNNMIALKPILQAWLEEAE [G25W]	-0.116 ± 0.064
RDLEAFAERFKQRRIKLGVTQADVYSALANLKIPGVGSLSQSTICRFESLTLSHNNMIALKPILQAWLEEAE [G25Y]	-0.404 ± 0.29
RDLEAFAERFKQRRIKLGVTQADVGAALANLKIPGVGSLSQSTICRFESLTLSHNNMIALKPILQAWLEEAE [S26A]	0.176 ± 0.081
RDLEAFAERFKQRRIKLGVTQADVGDALANLKIPGVGSLSQSTICRFESLTLSHNNMIALKPILQAWLEEAE [S26D]	-0.076 ± 0.12
RDLEAFAERFKQRRIKLGVTQADVGEALANLKIPGVGSLSQSTICRFESLTLSHNNMIALKPILQAWLEEAE [S26E]	0.048 ± 0.11
RDLEAFAERFKQRRIKLGVTQADVGFALANLKIPGVGSLSQSTICRFESLTLSHNNMIALKPILQAWLEEAE [S26F]	-0.032 ± 0.12
RDLEAFAERFKQRRIKLGVTQADVGGALANLKIPGVGSLSQSTICRFESLTLSHNNMIALKPILQAWLEEAE [S26G]	-0.164 ± 0.069
RDLEAFAERFKQRRIKLGVTQADVGHALANLKIPGVGSLSQSTICRFESLTLSHNNMIALKPILQAWLEEAE [S26H]	-0.059 ± 0.094
RDLEAFAERFKQRRIKLGVTQADVGIALANLKIPGVGSLSQSTICRFESLTLSHNNMIALKPILQAWLEEAE [S26I]	-0.275 ± 0.18
RDLEAFAERFKQRRIKLGVTQADVGKALANLKIPGVGSLSQSTICRFESLTLSHNNMIALKPILQAWLEEAE [S26K]	-0.176 ± 0.35
RDLEAFAERFKQRRIKLGVTQADVGLALANLKIPGVGSLSQSTICRFESLTLSHNNMIALKPILQAWLEEAE [S26L]	0.061 ± 0.054
RDLEAFAERFKQRRIKLGVTQADVGMALANLKIPGVGSLSQSTICRFESLTLSHNNMIALKPILQAWLEEAE [S26M]	-0.057 ± 0.11
RDLEAFAERFKQRRIKLGVTQADVGNALANLKIPGVGSLSQSTICRFESLTLSHNNMIALKPILQAWLEEAE [S26N]	0.239 ± 0.2
RDLEAFAERFKQRRIKLGVTQADVGPALANLKIPGVGSLSQSTICRFESLTLSHNNMIALKPILQAWLEEAE [S26P]	-0.694 ± 0.089
RDLEAFAERFKQRRIKLGVTQADVGQALANLKIPGVGSLSQSTICRFESLTLSHNNMIALKPILQAWLEEAE [S26Q]	-0.07 ± 0.095
RDLEAFAERFKQRRIKLGVTQADVGRALANLKIPGVGSLSQSTICRFESLTLSHNNMIALKPILQAWLEEAE [S26R]	0.062 ± 0.055
RDLEAFAERFKQRRIKLGVTQADVGTALANLKIPGVGSLSQSTICRFESLTLSHNNMIALKPILQAWLEEAE [S26T]	-0.08 ± 0.16
RDLEAFAERFKQRRIKLGVTQADVGVALANLKIPGVGSLSQSTICRFESLTLSHNNMIALKPILQAWLEEAE [S26V]	-0.234 ± 0.084
RDLEAFAERFKQRRIKLGVTQADVGWALANLKIPGVGSLSQSTICRFESLTLSHNNMIALKPILQAWLEEAE [S26W]	0.008 ± 0.093
RDLEAFAERFKQRRIKLGVTQADVGYALANLKIPGVGSLSQSTICRFESLTLSHNNMIALKPILQAWLEEAE [S26Y]	-0.05 ± 0.12
RDLEAFAERFKQRRIKLGVTQADVGSCLANLKIPGVGSLSQSTICRFESLTLSHNNMIALKPILQAWLEEAE [A27C]	-0.215 ± 0.095

Variant	abundance fitness
RDLEAFAERFKQRRIKLGVTQADVGSDLANLKIPGVGSLSQSTICRFESLTLSHNNMIALKPILQAWLEEAE [A27D]	-0.123 ± 0.2
RDLEAFAERFKQRRIKLGVTQADVGSELANLKIPGVGSLSQSTICRFESLTLSHNNMIALKPILQAWLEEAE [A27E]	-0.029 ± 0.11
RDLEAFAERFKQRRIKLGVTQADVGSFLANLKIPGVGSLSQSTICRFESLTLSHNNMIALKPILQAWLEEAE [A27F]	-0.114 ± 0.19
RDLEAFAERFKQRRIKLGVTQADVGSGLANLKIPGVGSLSQSTICRFESLTLSHNNMIALKPILQAWLEEAE [A27G]	-0.39 ± 0.083
RDLEAFAERFKQRRIKLGVTQADVGSHLANLKIPGVGSLSQSTICRFESLTLSHNNMIALKPILQAWLEEAE [A27H]	-0.172 ± 0.12
RDLEAFAERFKQRRIKLGVTQADVGSLLANLKIPGVGSLSQSTICRFESLTLSHNNMIALKPILQAWLEEAE [A27L]	-0.302 ± 0.034
RDLEAFAERFKQRRIKLGVTQADVGSMLANLKIPGVGSLSQSTICRFESLTLSHNNMIALKPILQAWLEEAE [A27M]	-0.234 ± 0.092
RDLEAFAERFKQRRIKLGVTQADVGSNLANLKIPGVGSLSQSTICRFESLTLSHNNMIALKPILQAWLEEAE [A27N]	-0.323 ± 0.14
RDLEAFAERFKQRRIKLGVTQADVGSPLANLKIPGVGSLSQSTICRFESLTLSHNNMIALKPILQAWLEEAE [A27P]	-0.941 ± 0.12
RDLEAFAERFKQRRIKLGVTQADVGSQLANLKIPGVGSLSQSTICRFESLTLSHNNMIALKPILQAWLEEAE [A27Q]	0.068 ± 0.069
RDLEAFAERFKQRRIKLGVTQADVGSRLANLKIPGVGSLSQSTICRFESLTLSHNNMIALKPILQAWLEEAE [A27R]	-0.178 ± 0.045
RDLEAFAERFKQRRIKLGVTQADVGSSLANLKIPGVGSLSQSTICRFESLTLSHNNMIALKPILQAWLEEAE [A27S]	-0.114 ± 0.048
RDLEAFAERFKQRRIKLGVTQADVGSTLANLKIPGVGSLSQSTICRFESLTLSHNNMIALKPILQAWLEEAE [A27T]	-0.434 ± 0.11
RDLEAFAERFKQRRIKLGVTQADVGSVLANLKIPGVGSLSQSTICRFESLTLSHNNMIALKPILQAWLEEAE [A27V]	-0.265 ± 0.092
RDLEAFAERFKQRRIKLGVTQADVGSWLANLKIPGVGSLSQSTICRFESLTLSHNNMIALKPILQAWLEEAE [A27W]	-0.174 ± 0.082
RDLEAFAERFKQRRIKLGVTQADVGSAAANLKIPGVGSLSQSTICRFESLTLSHNNMIALKPILQAWLEEAE [L28A]	-0.654 ± 0.14
RDLEAFAERFKQRRIKLGVTQADVGSADANLKIPGVGSLSQSTICRFESLTLSHNNMIALKPILQAWLEEAE [L28D]	-0.596 ± 0.44
RDLEAFAERFKQRRIKLGVTQADVGSAEANLKIPGVGSLSQSTICRFESLTLSHNNMIALKPILQAWLEEAE [L28E]	-0.657 ± 0.17
RDLEAFAERFKQRRIKLGVTQADVGSAFANLKIPGVGSLSQSTICRFESLTLSHNNMIALKPILQAWLEEAE [L28F]	-0.215 ± 0.12
RDLEAFAERFKQRRIKLGVTQADVGSAHANLKIPGVGSLSQSTICRFESLTLSHNNMIALKPILQAWLEEAE [L28H]	-0.786 ± 0.19
RDLEAFAERFKQRRIKLGVTQADVGSAIANLKIPGVGSLSQSTICRFESLTLSHNNMIALKPILQAWLEEAE [L28I]	0.072 ± 0.12
RDLEAFAERFKQRRIKLGVTQADVGSAMANLKIPGVGSLSQSTICRFESLTLSHNNMIALKPILQAWLEEAE [L28M]	0.008 ± 0.085
RDLEAFAERFKQRRIKLGVTQADVGSAPANLKIPGVGSLSQSTICRFESLTLSHNNMIALKPILQAWLEEAE [L28P]	-0.935 ± 0.14
RDLEAFAERFKQRRIKLGVTQADVGSARANLKIPGVGSLSQSTICRFESLTLSHNNMIALKPILQAWLEEAE [L28R]	-0.643 ± 0.045
RDLEAFAERFKQRRIKLGVTQADVGSASANLKIPGVGSLSQSTICRFESLTLSHNNMIALKPILQAWLEEAE [L28S]	-0.636 ± 0.064
